Assay results reported in PMC11401910 (2024).

Assays:
[1] = molecular target: T1, SurA-WT (E. coli, UniProt P0ABZ6 21-428); test: ITC
T1 chain: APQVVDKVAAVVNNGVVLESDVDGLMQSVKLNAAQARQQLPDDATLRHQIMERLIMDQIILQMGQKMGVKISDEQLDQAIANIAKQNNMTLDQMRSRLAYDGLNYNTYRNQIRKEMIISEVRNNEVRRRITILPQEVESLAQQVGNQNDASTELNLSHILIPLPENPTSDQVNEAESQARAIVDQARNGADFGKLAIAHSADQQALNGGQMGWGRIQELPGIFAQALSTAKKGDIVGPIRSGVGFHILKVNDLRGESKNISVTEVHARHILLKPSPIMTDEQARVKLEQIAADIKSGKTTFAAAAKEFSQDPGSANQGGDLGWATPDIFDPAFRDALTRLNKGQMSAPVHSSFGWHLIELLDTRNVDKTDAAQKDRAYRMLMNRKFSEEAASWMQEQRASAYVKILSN

[2] = molecular target: T2, tOmpA transmembrane domain (Escherichia coli, UniProt P0A910)
T2 chain: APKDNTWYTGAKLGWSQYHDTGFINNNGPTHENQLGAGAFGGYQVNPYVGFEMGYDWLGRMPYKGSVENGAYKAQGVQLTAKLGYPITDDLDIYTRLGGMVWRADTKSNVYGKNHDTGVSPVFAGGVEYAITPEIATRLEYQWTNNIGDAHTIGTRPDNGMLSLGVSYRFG

[3] = molecular target: T3, OmpF (Escherichia coli, UniProt P02931)
T3 chain: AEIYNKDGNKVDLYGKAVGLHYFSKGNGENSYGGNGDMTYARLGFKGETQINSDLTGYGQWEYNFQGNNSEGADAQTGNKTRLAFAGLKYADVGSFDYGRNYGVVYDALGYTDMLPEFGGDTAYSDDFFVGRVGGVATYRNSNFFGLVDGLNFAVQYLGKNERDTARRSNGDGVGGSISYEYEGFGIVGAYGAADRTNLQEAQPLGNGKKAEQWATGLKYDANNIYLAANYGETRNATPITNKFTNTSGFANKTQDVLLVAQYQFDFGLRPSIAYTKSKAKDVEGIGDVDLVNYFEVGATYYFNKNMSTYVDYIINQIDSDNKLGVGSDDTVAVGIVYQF

[4] = molecular target: T1, SurA-WT; test: MST; apparent Kd, Hill fit, 0.8 M urea
[5] = molecular target: SurA-core (E. coli, UniProt P0ABZ6 21-428, deleting codons for residues 172–389); test: MST; apparent Kd, Hill fit, 0.8 M urea

Binder: WEYIPNV [WEYIPNV peptide]
- Kd [1]: 5.4 µM

B1: SurA (protein)
chain: APQVVDKVAAVVNNGVVLESDVDGLMQSVKLNAAQARQQLPDDATLRHQIMERLIMDQIILQMGQKMGVKISDEQLDQAIANIAKQNNMTLDQMRSRLAYDGLNYNTYRNQIRKEMIISEVRNNEVRRRITILPQEVESLAQQVGNQNDASTELNLSHILIPLPENPTSDQVNEAESQARAIVDQARNGADFGKLAIAHSADQQALNGGQMGWGRIQELPGIFAQALSTAKKGDIVGPIRSGVGFHILKVNDLRGESKNISVTEVHARHILLKPSPIMTDEQARVKLEQIAADIKSGKTTFAAAAKEFSQDPGSANQGGDLGWATPDIFDPAFRDALTRLNKGQMSAPVHSSFGWHLIELLDTRNVDKTDAAQKDRAYRMLMNRKFSEEAASWMQEQRASAYVKILSN
- Kd [2]: 3.7 µM
- Ki [3]: 5.2 µM

B2: Cys-OmpX labelled with Alexa Fluor 488 (natural protein)
chain: MGSCATSTVTGGYAQSDAQGQMNKMGGFNLKYRYEEDNSPLGVIGSFTYTEKSRTASSGDYNKNQYYGITAGPAYRINDWASIYGVVGVGYGKFQTTEYPTYKHDTSDYGFSYGAGLQFNPMENVALDFSYEQSRIRSVDVGTWIAGVGYRF
modifications: Alexa Fluor 488 on the N-terminal Cys
- Kd [4]: 1.3 µM
- Kd [5]: 5.1 µM
